This note sets out measurements from the nanobody polyreactivity screen of Harvey et al. (2022).

The data set in a line: yeast display, Sf9 membrane polyspecificity reagent, FACS + sequencing; frameworks hold sequencing errors. In a few lines:
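In a synthetic yeast display library (Saccharomyces cerevisiae BJ5465), nanobody expression was induced with galactose for 36–48 hours. FACS gates were set low and high (top ~1%) using anti-HA fluorescence for expression and streptavidin fluorescence for binding of the Sf9 membrane reagent. Each polyreactivity label is drawn from the gate of origin.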
Regarding “QVQLVESGGGLVQAGGSLRLSCAASGSIFGVYAMGWYRQAPGKERELVAAINSGGTTYADSVKGRFTISRDNAKNTVYLQMNSLKPEDTAVYYCNADRWGPEDPYRVRDRFDYWGQGTQVTVSS”, the “polyreactivity (PSR sort gate)” value is recorded as “low polyreactivity”.
For “QVQLVESGGGLVQAGGSLRLSCAASGSIFGVYAMGWYRQAPGTERELVAAISSRGSSTYYADSVKGRFTISRDNAKKTVYLQMLSLKPEDTAVYYCAARPGIRSYPPGYGYWGQGTQGTVSS” the value was “high polyreactivity”; for “QVQLVESGGGLVQAGGSLRLSCAASGSIFGVYTMGWYRQAPGKERELVAAISGSGGSTYYADSVKGRFTISRDNAKNTVYLQMNSLKPEDTAVYYCATRFPKIPPYDSWGQGTQVTVSS”, “low polyreactivity”.
Take “QVQLVESGGGLVQAGGSLRLSCAASGSIFGVYVMGWYRQAPGKERELVAAITRGASTNYADSVKGRFTISRDNAKNTVYLQMNSLKPEDTAVYYCAADGWYSAVGVWLEYDYWGQGTQVTVSS”: the “polyreactivity (PSR sort gate)” value is recorded as “low polyreactivity”.
For “QVQLVESGGGLVQAGGSLRLSCAASGSIFGWNAMGWYRQAPGKERELVAAISSGGSTYYADSVKGRFTISRDNAKNTVYLQMNSMKPEDPAVYYCNAYFQYYDYWGQGTQVTVSS” the value was “low polyreactivity”; for “QVQLVESGGGLVQAGGSLRLSCAASGSIFGWYAMGWYRQAPGKERELVAAIDSATSTDYADSVKGRFTISRDNAKNTVYLQMNSLKPEDTAFYYCAVYSCWIDAEYDYWGQGTQVTGSS”, “low polyreactivity”.
For “QVQLVESGGGLVQAGGSLRLSCAASGSIFGWYVMGWYIQAPGKERELVAAISSVGSTYYADSVKGRFTISRDNAKNTVYLQMKSLKPEDTAVYYCAKLRYPYLFWDDSEYWGQGTQVTVSS” the value was “low polyreactivity”; for “QVQLVESGGGLVQAGGSLRLSCAASGSIFGWYVMGWYRQAPGKERELVAAISSVGSTYYADSVKGRFTISRDNAKNTVYLQMNSLKPEDTAVYYCAKLRYPYLFWDDSEYWGQGTQVTVSS”, “low polyreactivity”; for “QVQLVESGGGLVQAGGSLRLSCAASGSIFGYNAMGWSRQAPGKERELVAGITSGTSTYYADSVKGRFTISRDNAKYTVYLQMNSLKPEDTEVYYCARTSYRFYRKRYYWGQGTQVTVSS”, “high polyreactivity”.
For “QVQLVESGGGLVQAGGSLRLSCAASGSIFGYNAMGWYRQAPGIERELVAAISSGGNTYYADSVKGRFTISRDNAKNTVYLQMNSLKPEDTAVYYCAVDYYYGFDWGQGTQVTVSS” the value was “low polyreactivity”; for “QVQLVESGGGLVQAGGSLRLSCAASGSIFGYNAMGWYRQAPGKDREFVAAIRWSSGSTYYADSVKGRFTISRDNAKNTVYLQMNSLKPEDTAVYYCATRQTYLYWGQGTQVTVSS”, “high polyreactivity”; for “QVQLVESGGGLVQAGGSLRLSCAASGSIFGYNAMVWYRQAPGKESELVAAIRYSGGRTYYADSVKGRFTISRDNAKNSVYLQMNSLKPEDTAVYYCAAPIKFYRYGYTRYDYWGQCTQVTVSS”, “high polyreactivity”.
On to “QVQLVESGGGLVQAGGSLRLSCAASGSIFGYNDMGWYRQAPGKERELVAAIDWSDDITYYADSVKGRFTISRDNAKNTVYLQMNSLKPEDTAVYYCATKIRLALYFGYVSEYDYWGQGTQVTVSS”, for which the “polyreactivity (PSR sort gate)” value is reported as “high polyreactivity”.
As to “QVQLVESGGGLVQAGGSLRLSCAASGSIFGYNPMGWYIQAPGKERELVAAISRSGGRTYYADSVKGRFTISRDNAKNTVYLQMNSLKPEDTAVYDCAAPVWRYYRGKTFDYWGQGTQVTVSS”, the “polyreactivity (PSR sort gate)” value was “high polyreactivity”.
For “QVQLVESGGGLVQAGGSLRLSCAASGSIFGYNTMGRYRQAPGKERELVAAISYRGGSTYADSVKGRFTISRDNAKNTVYLQMNSLKPEDTAVYYCAKRSIVGYRYSGYDYWGQGTQVTVSS” the value was “high polyreactivity”; for “QVQLVESGGGLVQAGGSLRLSCAASGSIFGYNTMGWSRQAPGKERELVASISYSGGSTYYADSVKGRFTISRDNAKNTVYLQMNSLKPEDTAVYYCNTGSRYRPNRRYGYWGQGTQVTVSS”, “high polyreactivity”.
As for “QVQLVESGGGLVQAGGSLRLSCAASGSIFGYNVMGWYRQAPGKERELVAGITSGGSTNYADSVKGRFTISRDNAKNTVYVQMNSLKPEDTAVYYCNAEGVFGDGRSGFYWYDYWGQGTQVTVSS”, the entry is “low polyreactivity”.
For the sequence “QVQLVESGGGLVQAGGSLRLSCAASGSIFGYYALGWYRQAPGKERELVAAITSVGSTYYADSVKGRFTISRDNAKKTVSLQMNSLKPEDTAVYYCATRFWFRSLRSSYYYWGQGTQVTVSS”, the “polyreactivity (PSR sort gate)” value is “high polyreactivity”.
“QVQLVESGGGLVQAGGSLRLSCAASGSIFGYYAMGWSRQAPGKERELVAAISKSGGRTYYADSVKGRFTISRDNAKNTVYLQMNSLKPEDTAVYYCAAVLWYDIYYGGDYWGQGTQVTVSS”: the “polyreactivity (PSR sort gate)” value is on record as “high polyreactivity”.
As for “QVQLVESGGGLVQAGGSLRLSCAASGSIFGYYAMGWYRQAPGKERELVAAISSGGSTKYADSVKGRFTISRDNAKNTVYLQMNSLKPEDTAVYYFNAAYSQIRFNYRGQGTQVTVSS”, the entry is “high polyreactivity”.
As for “QVQLVESGGGLVQAGGSLRLSCAASGSIFGYYAMGWYRQAPGKERELVAAISTSGGRTYYADSVKGRFTISRDNAKNTVYFQMNSLKPEDTAVYYCAARVYSTSVVAYYYWGQGTQVTVSS”, the entry is “high polyreactivity”; as for “QVQLVESGGGLVQAGGSLRLSCAASGSIFGYYAMGWYRQAPGKERELVAAISWSGGRTYYADSVKGRFTISRDNAKNTVYLQMNSLKPEDTAVYYCNARWRSGPRAYDYWGQGTQVSVSS”, “high polyreactivity”; as for “QVQLVESGGGLVQAGGSLRLSCAASGSIFGYYTMGWYRQAPGKERELVAAITRSGATTFYADSVKGRFTISRDNAKNTVYLQMNSLKPEDTAVYYCAAKARGYTRGYWGQGTQVTVSS”, “high polyreactivity”.
Consider “QVQLVESGGGLVQAGGSLRLSCAASGSIFGYYTMGWYRQAPGKERELVARITRGGSTYYADSVKGRFTISRDNAKNTVYLQMNSLYPEDTSVYYCNAEIWTEGGYWGQGSQVTVSS”, for which the “polyreactivity (PSR sort gate)” value is “low polyreactivity”.
For “QVQLVESGGGLVQAGGSLRLSCAASGSIFGYYTMGWYRQAPGKERELVATINWSGGNTYYADSVKGRFTISRDNAKNTVYLQMNSLKPEDTAVYYCATRPRRGTSENGYWGQGTQVTVSS” the value was “high polyreactivity”; for “QVQLVESGGGLVQAGGSLRLSCAASGSIFGYYTMGWYRQAPGKERELVATISRSGGSTYYADSVKGRFTISRDNAKNTVYLQMNSLKPEDTAVYYCAARSWGGYDSRGYWGQGTQVTVSS”, “high polyreactivity”.
For “QVQLVESGGGLVQAGGSLRLSCAASGSIFGYYVMGWYRQAPGKERELVAAISGSDSSTYYADSVKGRFTISRDNAKNTVYLQMNSLKPEDTAVYYCNADLRYYPVEFDYWGQGTQVTVSS” the value was “low polyreactivity”; for “QVQLVESGGGLVQAGGSLRLSCAASGSIFHDYAMGWYRQEHGKERELVAVISTSGGSTYYADSVKGRFTISRDNAKNTDYLQMNSLKPEYTAVYYCNARTVGPYPSQAALEYDSGGQGTQVTVSS”, “low polyreactivity”.
As for “QVQLVESGGGLVQAGGSLRLSCAASGSIFHGNAMGWNRQAPGKERELVATISSGGSTYYADSVKGRFTISRDNAKNTVYLQMNSLKPEDTAVYYCAAEYWNGPYYGDPFEYDYWGQGTQVTVSS”, the entry is “low polyreactivity”; as for “QVQLVESGGGLVQAGGSLRLSCAASGSIFHGYAMGWYRHAPGKERELVAAITWSGGRTYYADSVKGRFTISRDNAKNNVYLQMNSLKPEDTAVYYCAAVALTRRYDYWGQGTQVTVSS”, “high polyreactivity”.
With “QVQLVESGGGLVQAGGSLRLSCAASGSIFHGYAMGWYRQAHGKETELVAVITRGGNTYYADSVKGRFTISRDNAKNTVYLQMNSLKPEDTAVYYCNKAVDRGRRAYGYWGQGTQVTVSS”, the “polyreactivity (PSR sort gate)” value is given as “high polyreactivity”.
For the sequence “QVQLVESGGGLVQAGGSLRLSCAASGSIFHGYGMGWYRPAPGKERELVASITWIGGDTYYADSVKGRFTISRDNAKNTVYLQMNSLKPEDTAVYYCNAEWVVTYIYDYWGQGTQVTVSS”, the “polyreactivity (PSR sort gate)” value is “low polyreactivity”.
As for “QVQLVESGGGLVQAGGSLRLSCAASGSIFHINAMGWYRQAPGKERELVAAISSADRTYYADSVKGRFTISRDNAMNTVYLQMNSLKPEDTAVYYCAAVYYRYPYEYWGQGTQVTVSS”, the entry is “high polyreactivity”; as for “QVQLVESGGGLVQAGGSLRLSCAASGSIFHPNAMGWYRQAPGKERELVAAISIGGDTYYADSVKGRFTISRDNAKNTVYLQMNSLKPEDTAVYYCAVTYVGHVYEYYYWGQGTQVTVSS”, “low polyreactivity”; as for “QVQLVESGGGLVQAGGSLRLSCAASGSIFHQYAMGWYRQAPGKERELVAAISANGGRTYYADSVKGRFTISRDNAKNTVYLQMNSLIPEDTAVYYCAASRPSYGVRYGYWGQGTQVTGSS”, “high polyreactivity”.
As for “QVQLVESGGGLVQAGGSLRLSCAASGSIFHRNTMGWYRQAPGKERELVAAIRRGGSTYYADSVKGRFTISRDNAKNTVYLQMNSLKPEDTAVYYCAADFPGEYYYWGQGTQVTVSS”, the entry is “high polyreactivity”.
For “QVQLVESGGGLVQAGGSLRLSCAASGSIFHRYAMGWYRQAPGKERELVAAISWRGSSTYYADSVKGRFTISRDNAKNTVYLQMNSLKPEDTAVYYCNARGGSRRRYDYWGQGTQVTVSS” the value was “high polyreactivity”; for “QVQLVESGGGLVQAGGSLRLSCAASGSIFHTYAMGWYRQAPGKEWELVAAISTDGSTYYADSVKGRFTISRDNAKNTVYLQRNSLKPEDTAVYYCNVAAKYDSFHRGITWYDYWGQGTQVTVSS”, “low polyreactivity”; for “QVQLVESGGGLVQAGGSLRLSCAASGSIFHTYLMGWYRQAPGKERELVASSTRSGGSTYYADSVKGRFTISRDNAKNTVYLQMNSLKPEDTAVYYCAATYRTANHRYYYWGQGTQVTVSS”, “high polyreactivity”.
Regarding “QVQLVESGGGLVQAGGSLRLSCAASGSIFHYNAMGWYRQAPGKERELVAAITSGGSTYYADSVKGRFTISRDNAKKTVYLQMNSLKPEDTAVYYCATVFYRTRYVPYGYWGQGTQVTVSS”, the “polyreactivity (PSR sort gate)” value was “low polyreactivity”.
As for “QVQLVESGGGLVQAGGSLRLSCAASGSIFHYNAMGWYRQAPGKERELVARISVNGGRTYYADSVKGRFTISRDNAKNTDYLQMNSLKPEDTAVYYCAVEGVWRSFFYGYDSWGQGTQVTVSS”, the entry is “low polyreactivity”.
